# Reference: patent US20260022170A1 (published 2026)
# B1: humanised CB6B3 (huCB6B3) (antibody, V domains shown)
# VH: EVQLVQSGAEVKKPGATVKISCKVSGYTFTDYFIHWVQQAPGKGLEWMGLIDPENDNTMYDPRFQVRVTITADTSTDTAYMELSSLRSEDTAVYYCASTVVARSFDYWGQGTTVTVSS
# VL: AIQMTQSPSSLSASVGDRVTITCKASQSVSNDVAWYQQKPGKAPKLLIYYTSNRYTGVPSRFSGSGSGTDFTLTISSLQPEDFATYYCQQDFRSPFTFGGGTKVEIK
# B2: anti-Siglec-9 monoclonal antibody clone CB6B3 (parental mouse antibody) (antibody, V domains shown)
# VH: EVQLQQSGAEVVRPGALVKLSCKAAGFNIKDYFIHWVKQRPEQGLEWIGLIDPENDNTMYDPRFQVKASLTADTSSNTAYLQLSRLTSEDAAVYYCASTVVARSFDYWGQGTTLTVSS
# VL: SIVMTQTPKFLLVSAGDRVTITCKASQSVSNDVAWYQQKSGQSPKLLIYYTSNRYTGVPDRFTGSGYGTDFTFTISTVQAEDLAVYFCQQDFRSPFTFGAGTKLELK
# B3: Benchmark-3 (antibody, V domains shown)
# VH: QSLEESGGRLVKPDETLTITCTVSGIDLSSYDMTWVRQAPGKGLEWIGIIYTGGLTYYASWAKGRFTISKTSTTVDLKITSPTTEDTATYFCAREVGDNNNFWGPGTLVTVSS
# VL: DVVMTQTPASVSEPVGGTVTIKCQASESVDSGLAWYHQKPGQPPKLLIYDDTDLASGVPSRFKGSRSGTAHTLTISDLECADAATYYCQYTDYGRTYVGTFGGGTEVVIKG
# B4: anti-Siglec-9 monoclonal antibody clone ED2D5 (antibody, V domains shown)
# VH: EVQLVESGGGLVKPGGSLKLSCAASGFTFSDYYMYWVRQTPEKRLEWVATISDGGSDTYYPDNMKGRFTISRDNAKNNLYLQMSSLKSEDTAMYYCTRDPDYDDGRFAYWGQGTLVTVSA
# VL: DIVMTQSHKFMSTSVGDRVSITCKASQDVGTVVAWYQQKSGQSPKLLIYWSSTRHTGVPDRFTGSGSGTDFTLTISNVQSEDLADYFCQQYIDYPLSFGAGTKLELK
# Key:
# [1] = biological target: recombinant Siglec-9 (SinoBiological, 30109-H03H) (UniProt Q9Y336 18-348); experiment: ELISA
# [2] = biological target: human Siglec-9 protein (recombinant; construct not stated) (UniProt Q9Y336 18-344); experiment: BLI
# [3] = biological target: recombinant human Siglec-9 protein (UniProt Q9Y336 18-348); experiment: ELISA
# Chain of recombinant human Siglec-9 protein (Q9Y336 18-348): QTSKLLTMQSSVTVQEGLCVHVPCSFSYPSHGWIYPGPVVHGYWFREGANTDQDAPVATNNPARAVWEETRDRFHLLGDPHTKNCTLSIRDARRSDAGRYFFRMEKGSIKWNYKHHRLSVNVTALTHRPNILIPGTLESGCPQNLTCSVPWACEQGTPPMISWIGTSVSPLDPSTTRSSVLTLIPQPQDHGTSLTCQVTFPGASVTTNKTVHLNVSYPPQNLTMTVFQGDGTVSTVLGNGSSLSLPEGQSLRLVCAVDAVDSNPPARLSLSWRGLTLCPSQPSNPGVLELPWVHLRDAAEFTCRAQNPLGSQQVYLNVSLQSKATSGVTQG
# Chain of human Siglec-9 protein (recombinant; construct not stated) (Q9Y336 18-344): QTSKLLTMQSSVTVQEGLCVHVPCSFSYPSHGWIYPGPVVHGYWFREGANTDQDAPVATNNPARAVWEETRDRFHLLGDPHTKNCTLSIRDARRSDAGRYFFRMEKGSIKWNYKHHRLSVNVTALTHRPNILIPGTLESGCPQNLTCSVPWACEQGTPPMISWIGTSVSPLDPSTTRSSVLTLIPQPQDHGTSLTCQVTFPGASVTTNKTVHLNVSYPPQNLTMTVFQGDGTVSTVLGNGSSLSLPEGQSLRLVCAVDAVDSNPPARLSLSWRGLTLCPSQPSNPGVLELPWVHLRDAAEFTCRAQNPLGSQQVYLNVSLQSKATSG
# Chain of recombinant Siglec-9 (SinoBiological, 30109-H03H) (Q9Y336 18-348): as the sequence (Q9Y336 18-348) above
Binder,Kd [2],other results
B1,–,EC50 [1]: 0.13 nM
B2,80 nM,–
B3,–,EC50 [3]: 0.157 nM
B4,38 nM,–
